Data from the RNAGym collection of RNA variant scans (doi:10.7554/elife.80360).

B1: HDV Ribozyme (parent)
chain: GGCCGGCAUGGUCCCAGCCUCCUCGCUGGCGCCGGCUGGGCAACAUUCCGAGGGGACCGUCCCCUCGGUAAUGGCGAAUGGGACCCA

Variants of: B1
Assay: self-cleavage, relative activity (ratio to wild type); higher = more cleavage; co-transcriptional

Row | Variant | self-cleavage
1 | GGCCAGCAUGGUCCCAGCCUCCUCGCUGGCGCCGGCUGGGAAACAUUCCGAGGGGACCGUCCCCUCGGUAAUGGCGAAUGGGACCCA [G5A C41A] | 0.0615
2 | GGCCAGCAUGGUCCCAGCCUCCUCGCUGGCGCCGGCUGGGGAACAUUCCGAGGGGACCGUCCCCUCGGUAAUGGCGAAUGGGACCCA [G5A C41G] | 0
3 | GGCCAGCAUGGUCCCAGCCUCCUCGCUGGCGCCGGCUGCGCAACAUUCCGAGGGGACCGUCCCCUCGGUAAUGGCGAAUGGGACCCA [G5A G39C] | 0.119
4 | GGCCAGCAUGGUCCCAGCCUCCUCGCUGGCGCCGGCUGGGCAACAUUCCGAGGGGACCGUCCCCUCCGUAAUGGCGAAUGGGACCCA [G5A G67C] | 0.162
5 | GGCCAGCAUGGUCCCAGCCUCCUCGCUGGCGCUGGCUGGGCAACAUUCCGAGGGGACCGUCCCCUCGGUAAUGGCGAAUGGGACCCA [G5A C33U] | 0.831
6 | GGCCAGCAUGGUCCCAGCCUCCUCGCUGGCGCAGGCUGGGCAACAUUCCGAGGGGACCGUCCCCUCGGUAAUGGCGAAUGGGACCCA [G5A C33A] | 0.219
7 | GGCCAGCAUGGUCCCAGCCUCCUCGCUGGCGCCGGCUGGGCAACAUUCCGAGGCGACCGUCCCCUCGGUAAUGGCGAAUGGGACCCA [G5A G54C] | 0.225
8 | GGCCAGCAUGGUCCCAGCCUCCUCGCUGGCGCCGGCUGGGCAACAUUCCGAGGUGACCGUCCCCUCGGUAAUGGCGAAUGGGACCCA [G5A G54U] | 0.113
9 | GGCCAGCAUGGUCCCAGCCUCCUCGCUGCCGCCGGCUGGGCAACAUUCCGAGGGGACCGUCCCCUCGGUAAUGGCGAAUGGGACCCA [G5A G29C] | 0.0755
10 | GGCCAGCAUGGUCCCAGCCUCCUCGCUGACGCCGGCUGGGCAACAUUCCGAGGGGACCGUCCCCUCGGUAAUGGCGAAUGGGACCCA [G5A G29A] | 0.155
11 | GGCCAGCAUGGUCCCAGCCUCCUCGCUGUCGCCGGCUGGGCAACAUUCCGAGGGGACCGUCCCCUCGGUAAUGGCGAAUGGGACCCA [G5A G29U] | 0.0519
12 | GGCCAGCAUGGUCCCAGCCUCCUCGCUUGCGCCGGCUGGGCAACAUUCCGAGGGGACCGUCCCCUCGGUAAUGGCGAAUGGGACCCA [G5A G28U] | 0
13 | GGCCAGCAUGGUCCCAGCCUCCUCGCUGGCGCCGGCUGGGCAACAUUCCGAUGGGACCGUCCCCUCGGUAAUGGCGAAUGGGACCCA [G5A G52U] | 0.237
14 | GGCCAGCAUGGUCCCAGCCUCCUCGCUGGCGCCGGCUGGUCAACAUUCCGAGGGGACCGUCCCCUCGGUAAUGGCGAAUGGGACCCA [G5A G40U] | 0.119
15 | GGCCAGCAUGGUCCCAGCCUCCUCGCUGGCGCCGGCUGGGCAACAUUCCGAGGGGACCGUCCCUUCGGUAAUGGCGAAUGGGACCCA [G5A C64U] | 0.359
16 | GGCCAGCAUGGUCCCAGCCUCCUCGCUGGCGCCGGCUGGGCAACAUUCCGAGGGGACCGUCCCGUCGGUAAUGGCGAAUGGGACCCA [G5A C64G] | 0.237

Row | Variant | self-cleavage
17 | GGCCAGCAUGGUCCCAGCCUCCUCGCUGGCGCCGGCUGGGCAACAUUCCGAGGGGACCGUCCCAUCGGUAAUGGCGAAUGGGACCCA [G5A C64A] | 0.198
18 | GGCCAGCAUGGUCCCAGCCUCCUCGCUGGCGCCGGCUGGGCAACAUUCCGAGGGGACCGUCCCCUCGGUAAUGGUGAAUGGGACCCA [G5A C75U] | 0.0346
19 | GGCCAGCAUGGUCCCAGCCUCCUCGCUGGCGCCGGCUGGGCAACAUUCCGAGGGGACCGUCCCCUCGGUAAUGGGGAAUGGGACCCA [G5A C75G] | 0
20 | GGCCAGCAUGGUCCCAGCCUCCUCGCUGGCGCCGGCUGGGCAACAUUCCGAGGGGACCGUCCCCUCGGUAAUGGAGAAUGGGACCCA [G5A C75A] | 0.113
21 | GGCCAGCAUGGUCCCAGCCUCCUCGCUGGCGCCGGCUGGGCAACAUUCCGAGGGCACCGUCCCCUCGGUAAUGGCGAAUGGGACCCA [G5A G55C] | 0.104
22 | GGCCAUCAUGGUCCCAGCCUCCUCGCUGGCGCCGGCUGGGCAACAUUCCGAGGGGACCGUCCCCUCGGUAAUGGCGAAUGGGACCCA [G5A G6U] | 0.0923
23 | GGCCACCAUGGUCCCAGCCUCCUCGCUGGCGCCGGCUGGGCAACAUUCCGAGGGGACCGUCCCCUCGGUAAUGGCGAAUGGGACCCA [G5A G6C] | 0.0536
24 | GGCCAGCAUGGUCCCAUCCUCCUCGCUGGCGCCGGCUGGGCAACAUUCCGAGGGGACCGUCCCCUCGGUAAUGGCGAAUGGGACCCA [G5A G17U] | 0.123
25 | GGCCAGCAUGGUCCCAGCCUCCUCGCUGGCGCCGGCUGGGCAACAUUCCGAGGGGACCGUCCCCUCGGUAAUGGCCAAUGGGACCCA [G5A G76C] | 0.0959
26 | GGCCAGCAUGGUCCCAGCCUCCUCGCUGGCGCCGGCUGGGCAACAUUCCGAGGGGACCGUGCCCUCGGUAAUGGCGAAUGGGACCCA [G5A C61G] | 0.166
27 | GGCCAGCAUGGUCCCAGCCUCCUCGCUGGCGCCGGCUGGGCAACAUUCCGAGGGGACCGUACCCUCGGUAAUGGCGAAUGGGACCCA [G5A C61A] | 0.0573
28 | GGCCAGCAUGGUCCCAGCCUCCUCGCUGGCGCCGGCUGGGCAACAUUCCGAGGGGACCGUUCCCUCGGUAAUGGCGAAUGGGACCCA [G5A C61U] | 0.0326
29 | GGCCAGCAUGGUCCCAGCCUCCUCGCUGGCGCCUGCUGGGCAACAUUCCGAGGGGACCGUCCCCUCGGUAAUGGCGAAUGGGACCCA [G5A G34U] | 0.0282
30 | GGCCAGCAUGGUCCCAGCCUCCUCGCUGGCGCCGGCUGGGCAACAUUCCGAGGGGACCGUCCCCUCGGUAAUGGCGAAUGGGACCAA [G5A C86A] | 0.132
31 | GGCCAGCAUGGUCCCAGCCUCCUCGCUGGCGCCGGCUGGGCAACAUUCCGAGGGGACCGUCCCCUCGGUAAUGGCGAAUGGGACCUA [G5A C86U] | 0.396
32 | GGCCAGCAUGGUCCCAGCCUCCUCGCUGGCGCCGGCUGGGCAACAUUCCGAGGGGACCGUCCCCUCGGUAAUGUCGAAUGGGACCCA [G5A G74U] | 0.0326
